Experimental data from patent US7910549.

Molecular target: complete MN/CA IX protein (MN/CA IX+), from Vero cells infected with vaccinia virus carrying the complete coding region of MN/CA IX (human) (UniProt Q16790)
Test: cell-based or functional assay

monoclonal antibody M75 (MAb M75), secreted by hybridoma VU-M75, ATCC HB 11128
cell attachment to purified MN/CA IX+ (fold dilution of ascites fluid): 1000
